Where a SMILES comes first, the peptide text is derived from it. Where no end group is shown, it is not given here. [ ]: non-standard residue; d: D form. Ala(indol-4-yl) = N[C@@H](Cc1cccc2[nH]ccc12)C(=O)O; Gly(cPent) = N[C@H](C(=O)O)C1CCCC1; Tic = O=C(O)[C@@H]1Cc2ccccc2CN1; Chg = N[C@H](C(=O)O)C1CCCCC1; Pip = O=C(O)[C@@H]1CCCCN1; Idg = not defined here Some results are limits rather than exact numbers.

As a reminder, the IC50 is the midpoint of a concentration-inhibition curve.

One test deals with DR13 (HLA-DR molecules). Put plainly: HLA II binding assay, DR13. On the set-up: species or system human. The note with it: read-out: Inhibition of peptide binding IC50 DR13.
In a further test the test system is T cell proliferation. To be noted: cited from earlier work.
For test [1] the following is noted: in vivo; cited from earlier work.
Another test addresses DRB5*0101 molecules (Homo sapiens, UniProt P01903+Q30154). To be noted: DR2 haplotype; cited from earlier work.
Another test addresses DRB1*1501 molecules (Homo sapiens, UniProt P01903+P01911). The note with it: DR2 haplotype; cited from earlier work.
The target of test [2] is MHC class II HLA-DR2 (DRA*0101/DRB1*1501) (human). Put plainly: competition binding assay, purified HLA-DR, biotinylated reference peptide SEQ ID NO 107 as competitor, L243 capture.
A further test addresses T1, DR2a (human, UniProt P01903 26-216, limits assumed).
T1 construct: mature
Put plainly: competition binding assay, purified HLA-DR, biotinylated reference peptide (not named), L243 capture.

In test [3] the target is T2, MHC class II HLA-DR2 (DRA*0101/DRB1*1501) (human, UniProt P01903 26-254; P01911 30-266, limits assumed).
T2 construct: mature; Detergent-solubilised native molecule purified from cells; also called DR2b
Put plainly: competition binding assay, purified HLA-DR, biotinylated reference peptide SEQ ID NO 107 as competitor, L243 capture.

Consider `CC(=O)N[C@H](C(=O)N[C@@H](CCCNC(=N)N)C(=O)N1Cc2ccccc2C[C@H]1C(=O)N[C@@H](Cc1ccccc1)C(=O)N1CCCC[C@H]1C(N)=O)C1CCCC1` [Ac(Cpg)R(Tic)F(hPro), Ac(Cpg)R(Tic)F(homo Pro)] (Ac-[Gly(cPent)]R[Tic]F[Pip]-NH2; N-terminus and C-terminus assumed), for which the IC50 on DR13 (HLA-DR molecules) was greater than 100000 nM.
Take a(Cha)AAAKTAAAAa-NH2: the “suppression of T cell proliferation in response to protein antigens” value in the test with T cell proliferation is “did not supress T cell proliferation”. The “activity in animal models of autoimmune disease” value in test [1] is on record as “did not show activity”.
With “MBP (84-102): immunodominant myelin basic protein (84-102) peptide (DPGSRPHLIRLFSRDAPGR; Myelin basic protein; UniProt P02686 84-102, looked up, fragment)”, in the test with DRB5*0101 molecules, the “binding affinity to DRB5*0101 molecules” value was “high affinity”. For the same molecule, the “binding affinity to DRB1*1501 molecules” value with DRB1*1501 molecules is “high affinity”.
In turn, Ac(Cpg)R(Tic)F(hPro) (peptide) showed an IC50 in test [2] of 75 nM.
Ac-[Idg]RFFKNI (not fully specified; printed as Ac(Idg)RFFKNI; reading uncertain, also called Entry 64) [Ac(Idg)RFFKNI]: the IC50 was found to be 17 nM in the test with DR2a and 90 nM in test [3].
Ac-VHFFKNI (also called Entry 2) [AcVHFFKNI] yielded an IC50 in test [3] of 450 nM.
Turning to Ac-[Chg]RF[Ala(indol-4-yl)]KNI (not fully specified; printed as Ac(Chg)RF(4′-IndolylAla)KNI, also called Entry 79) [Ac(Chg)RF(4′-IndolylAla)KNI], the IC50 with DR2a came to 3580 nM; in test [3], 6 nM.
In the case of Ac-V[Chg]RFFK (not fully specified; printed as AcV(Chg)RFFK, also called Entry 85) [AcV(Chg)RFFK], the IC50 in the test with DR2a was found to be 685 nM; in test [3] it was 3 nM.
The like results for Ac-[Gly(cPent)]RFFKNI (not fully specified; printed as Ac(Cpg)RFFKNI, also called Entry 25) [Ac(Cpg)RFFKNI] were, in that order, 630 nM and 25 nM.

(Values after patent US8598312B2, “Inhibitors of antigen presentation by MHC class II molecules” (Provid Pharmaceuticals, Inc., priority 2003, dated 2013).)
